According to the supplement of paper PMC9170038:

Test system: MS2 coat protein
Experiment: apparent KD of MS2 coat protein; designed switch direction (-1 OFF switch, 1 ON switch): -1; higher = weaker reporter binding
In short: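 Normalised cluster fluorescence was curve-fitted, and each design's median over clusters is its apparent KD. Before this, SNAP-549-labelled MS2 coat protein was titrated from 0.7 or 1.5 nM, doubling to 3 µM, over RNA switches transcribed on Illumina chips by stalled E. coli RNA polymerase. Titrations had no input, 200 uM small-molecule ligand, or an oligonucleotide input, and steps lasted 0.8–1.5 h (lowest) to 10–20 min (highest).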

[1] = Eterna round: R95, input ligand: FMN 200 uM
[2] = Eterna round: R95, input ligand: microRNA oligo, concentration not stated
[3] = Eterna round: R95, input ligand: none
[4] = input ligand: microRNA oligo, concentration not stated

Row | Sequence | apparent KD of MS2 coat protein (input ligand: FMN 200 uM) | apparent KD of MS2 coat protein (input ligand: none) | apparent KD of MS2 coat protein [1] | apparent KD of MS2 coat protein [2] | apparent KD of MS2 coat protein [3] | apparent KD of MS2 coat protein [4]
1 | CUAGUAUAUCAGGAUAUGAUUUUAUAUAGUUGAUCAGAAGGGAUAACAUGAGGAUCACCCAUGUUAAGGAGUGA [JR_Ex6_Sub042] (Eterna round: R97, puzzle: Exclusion 6) | 99.2 nM | 38.7 nM |  |  |  | 
2 | CUAGUCCGAGGAUAUAUUAUGUGAAACAUGAGGAUCACCCAUGUAAUAUGAUGGAAAUAAAUAGAAGGCGGACUAG [Mat - Exclusion 5 - JL mod - D33] (puzzle: Exclusion 5) |  |  | 25.7 nM | 30.9 nM | 30.2 nM | 
3 | CUCAGACAUGAGGAUCACCCAUGUGAGGAUAUGAUGCGAUCGUCGAAAGACGAUAGCAUCAGAAGGCACAAAUG [Fiskers Ex 1 - 24] (puzzle: Exclusion 1) |  |  |  | 71.2 nM |  | 
4 | CUCAUGCCUGAGGAUAUGCUGUACAAAAGUACUGCAGAAGGCAGGACAUGAGGAUCACCCAUGUGGCGAAAGCC [Omei Ex G10] (Eterna round: R97, puzzle: Exclusion 6) | 13.4 nM | 198 nM |  |  |  | 
5 | CUCAUGUGAGGAUAUGUGAUCUGCUUUCUGUGUAGAUGAUCACAGAAGGCACAUGAGGAUCACCCAUGUAGAUC [Ex4 - 3 - 28] (Eterna round: R96, puzzle: Exclusion 4) | 65.7 nM | 91 nM |  |  |  | 93.9 nM
6 | CUCAUGUGAGGAUAUGUGAUCUGCUUUCUGUGUAGAUGAUCACAGAAGGCACAUGAGGAUCACCCAUGUAGAUC [Ex4 - 3 - 28] (puzzle: Exclusion 4) |  |  |  | 67.5 nM |  | 
7 | CUCCGGCGUGUAGGAUAUGGAUCCGAUUAGGAUCCAGAAGGACAUGAGGAUCACCCAUGUACAUGUAGACGGUCGUCACCGGGC [salish99_ExNG1_r04_208] (Eterna round: R96, puzzle: Exclusion NG 1) | 195 nM | 42.1 nM |  |  |  | 32 nM
8 | CUCCUCAUGGCGCCUAAACACAUGAGGAUCACCCAUGUACAGGCUUUCUGCCGUCUUAUAAUAAAACCGAGGAUGCG [Soedlexe] (puzzle: Sensor v3, turn-off variant 1) |  |  | 33.6 nM | 212 nM | 42.1 nM | 
9 | CUCCUCCCGAAGGAUAUCCACGCCAACUUCGUAGGAGAAGGUCGGACAUGAGGAUCACCCAUGUGGCCAUGGUU [Gezateza] (puzzle: Exclusion 6) |  |  |  | 16 nM |  | 
10 | CUCCUCGUGGCGCCUAAACACAUGAGGAUCACCCAUGUACAGGCUUUUUGCCGUCUUACAAUAAAACCGAGGAUACG [Inveon] (puzzle: Sensor v3, turn-off variant 1) |  |  | 19.8 nM | 50.8 nM | 20.4 nM | 
11 | CUCGGACAUGAGGAUCACCCAUGUGAGGAUAUGGUGCUAUCGUCAUUAGACGAUUGCGUUAGAAGGCACAAAUG [LRO-Excl1-28] (puzzle: Exclusion 1) |  |  |  | 35.2 nM |  | 
12 | CUCGGGAGUCAGGAUAUCGGCACAUAUCAAUCACGAGAAGGGACGACAUGAGGAUCACCCAUGUGGGAAAAGAA [Bivetilaza] (puzzle: Exclusion 6) |  |  | 92.9 nM | 38.1 nM | 41.7 nM | 
13 | CUCGUGUGAGGAUAUUCACACCCGUCAAAACAACGGACAAAGAAGAAGGCACAUGAGGAUCACCCAUGUAAAGA [Usenisor] (Eterna round: R97, puzzle: Exclusion 4) | 92.1 nM | 106 nM |  |  |  | 
14 | CUCGUGUUAGGAUAUCUAUCGCGGAUGACAGAGAGGACGUUGGAGAAGGAACAUGAGGAUCACCCAUGUUCUGG [Eternabot (L2) Solution 86] (Eterna round: R97, puzzle: Exclusion 4) | 18.8 nM | 14.5 nM |  |  |  | 
15 | CUCUAGUCAGGAUAUCACGUUUACCGUGCACUCACAAAGCCUGAGAAGGGACUUGAGGAUCACCCAAGUGGGAA [Reedbequ] (Eterna round: R97, puzzle: Exclusion 4) | 211 nM | 231 nM |  |  |  | 
16 | CUCUCUCAUGUGAGGAUAUCGAGGCAGUCCGCAAACGAGAAGGUACAUGAGGAUCACCCAUGUCAACAGUAAUG [BmEX4 C.8] (Eterna round: R97, puzzle: Brourd's mod of Exclusion 4) | 143 nM | 33 nM |  |  |  | 
17 | CUCUCUCGAGGAUAUACCGUAUGGUGGAAUCUCCUCGGAAGACAUGAGGAUCACCCAUGUAGAAGGCGAGAUGG [Eternabot (L2) Solution 64] (Eterna round: R97, puzzle: Exclusion 2) | 144 nM | 31.3 nM |  |  |  | 
18 | CUCUUGUUAGGAUAUCAAACUGGCAGCGGAGCUGGCAGAAGUGAGAAGGGACAUGAGGAUCACCCAUGUAAGAA [Aristeza] (puzzle: Exclusion 4) |  |  |  | 70.2 nM |  | 

Row | Sequence | apparent KD of MS2 coat protein (input ligand: FMN 200 uM) | apparent KD of MS2 coat protein (input ligand: none) | apparent KD of MS2 coat protein [1] | apparent KD of MS2 coat protein [2] | apparent KD of MS2 coat protein [3] | apparent KD of MS2 coat protein [4]
19 | CUGAACUGAGGAUAUACAUGAGGAUCACCCAUGUGAUGUAGUGCACGCGUACGUGUACGUAGAAGGCAGUUCAG [Mat - Exclusion 3 - Eli Mod - D42] (Eterna round: R97, puzzle: Exclusion 3) | 56.1 nM | 19.8 nM |  |  |  | 
20 | CUGAAGAAGUUAGUGGCCUACAUGAGGAUCACCCAUGUGAGGGACAUGUCGAGGCAGAAGCUGAGUGCUCGUCUGUA [JR_SV3TOV1_Sub042] (puzzle: Sensor v3, turn-off variant 1) |  |  | 16 nM | 20 nM | 17 nM | 
21 | CUGACUCAAGGAUAUUGUACUGCUGACAUGAGGAUCACCCAUGUAUGUUAACUCGGCCGACGAGAAGGUGACAAAA [BotMod 7 - Jieux - Exclusion 5] (Eterna round: R97, puzzle: Exclusion 5) | 126 nM | 111 nM |  |  |  | 
22 | CUGAGCUGAGGAUAUACAUGAGGAUCACCCAUGUGUUGGAGCUUGCGUACAGGCAGAUGUAGAAGGCAGUUCGG [JL-ex3-3.32 Brourd mod] (puzzle: Exclusion 3) |  |  |  | 19.5 nM |  | 
23 | CUGAGGUAGCGGUCCUAUGACAUGAGGAUCACCCAUGUACCUUGCUUUGAGCUUUUAGCUCGUCUUAUGAUUCUCGG [Mat - Sensor v3 - turn-off var 1 - JL Mod - D43] (puzzle: Sensor v3, turn-off variant 1) |  |  | 271 nM | 235 nM | 446 nM | 
24 | CUGCCGAGAGGAUAUACUAAGCGAAGAGCCUCAUAAAAGUUACAUGAGGAUCACCCAUGUAGAAGGCUUGGGAG [Eternabot (Original) Solution 38] (Eterna round: R97, puzzle: Exclusion 2) | 104 nM | 54.4 nM |  |  |  | 
25 | CUGGACCCGGCAGGAUAUAUUGUGGGCGGGCGUGGAACGACAUGAGGAUCACCCAUGUGAUUGAGGUAGAAGGGCCGAGAGGUC [Excl-NG2-LRO20] (Eterna round: R96, puzzle: Exclusion NG 2) | 38.5 nM | 47.7 nM |  |  |  | 30.6 nM
26 | CUGGAGUCAGGAUAUGACGCAGUCCGCCCAAGUGGCGGAAAUCAGAAGGGACUUGAGGAUCACCCAAGUAAAAG [Resorama] (Eterna round: R97, puzzle: Exclusion 4) | 26.8 nM | 29.8 nM |  |  |  | 
27 | CUGGUCCGAGGAUAUAUAUUGUGAUACAUGAGGAUCACCCAUGUAAUAAUAUGGAUAUAAAUAGAAGGCGGACUAG [Mat - Exclusion 5 - JL mod - D49] (puzzle: Exclusion 5) |  |  | 35.8 nM | 23 nM | 27.7 nM | 
28 | CUGGUCCGAGGAUAUAUUAAGUGAAACAUGAGGAUCACCCAUGUUAUUUAAUGGAAGUAAAUAGAAGGCGGACUAG [Mat - Exclusion 5 - JL mod - D54] (puzzle: Exclusion 5) |  |  | 38.7 nM | 48.8 nM | 43.5 nM | 
29 | CUGGUUCUAGGAUAUGCACUCACGAUCCUCCUUCAAUCGCAACAUGAGGAUCACCCAUGUAGAAGGAGAAAGUA [Eternabot (L1) Solution 91] (Eterna round: R97, puzzle: Exclusion 2) | 18.5 nM | 18.6 nM |  |  |  | 
30 | CUGUAACAUGAGGAUCACCCAUGUCAGGAUAUCUAUCAUAGCAUCGAAAGAUGCGGGUAGAGAAGGGACUAUCC [ChP Ext 10-04-2015 #8] (puzzle: Exclusion 1) |  |  |  | 14.5 nM |  | 
31 | CUGUACUGAGGAUAUACAUGAGGAUCACCCAUGUGAUCUAGUGCACGCGUACGUGUACGUAGAAGGCAGUACAG [Mat - Exclusion 3 - Eli Mod - D38] (Eterna round: R97, puzzle: Exclusion 3) | 792 nM | 56.5 nM |  |  |  | 
32 | CUGUAGCUAUGAGGAUAUGCCACAAAAGUAGUUGCAGAAGGCAUCCCUACCCAGUAAGAACAUGAGGAUCACCCAUGUGAUCUG [Eternabot solution 43] (Eterna round: R96, puzzle: Exclusion NG 1) | 71.6 nM | 63.4 nM |  |  |  | 44.5 nM
33 | CUGUGCACGCUGCGGUCCUACAUGAGGAUCACCCAUGUGGUCUGGUGGCGUGGGUCGCCGGACUUGGCUCGUCUUGG [salish99_S_TOV1_R5_025] (Eterna round: R97, puzzle: Sensor, turn-off variant 1) | 15.3 nM | 15.9 nM |  |  |  | 
34 | CUGUUCCGUGUAGGAUAUGCAUAUUCUCAUUAUGCAGAAGGACAUGAGGAUCACCCAUGUAUGUUAUUAUCAUAUGUUACAUGU [Design 5] (Eterna round: R96, puzzle: Exclusion NG 1) |  |  |  |  |  | 29.7 nM
35 | CUGUUCCGUGUAGGAUAUGCAUAUUCUCAUUAUGCAGAAGGACAUGAGGAUCACCCAUGUAUGUUAUUAUCAUGUGUUACAUGC [Design 7] (Eterna round: R96, puzzle: Exclusion NG 1) | 220 nM | 38.8 nM |  |  |  | 35.9 nM
